Changes are numbered by the printed parent chain. Starred links: 1 amine or outer side, 2 acyl side, 3 side chain; linkers in the order of their positions; H or OH if unused. Positions of bridges follow the written chain, without caps; N, C: chain ends. Non-standard residues stand in square brackets, D forms with d. Chains are numbered I, II in the order given. No end group written: not given here. dLys(PYA) = D-lysine Nε-acylated with 4-pentynoic acid, clicked (triazole) to the linker azide, O=C(CCc1cn([*:3])nn1)NCCCC[C@@H](N[*:1])C(=O)[*:2]; TATA = O=C(CC[*:1])N1CN(C(=O)CC[*:2])CN(C(=O)CC[*:3])C1; 1Nal = N[C@@H](Cc1cccc2ccccc12)C(=O)O; Hyp = O=C(O)[C@@H]1C[C@@H](O)CN1; hArg = N=C(N)NCCCC[C@H](N)C(=O)O; tBuAla = CC(C)(C)C[C@H](N)C(=O)O; Nle = CCCC[C@H](N)C(=O)O
Assays:
[1] = target: T1, human CD137 extracellular domain (human, UniProt Q07011 24-186, biotinylated where captured on the streptavidin chip); assay: SPR dual binding, BCY11863 captured on biotinylated human Nectin-4, soluble CD137 ECD passed over, n = 4
T1 construct: extracellular domain; Section 17 says only 'Recombinant human CD137 (R&D systems)'; also called CD137 (human); Recombinant human CD137 (R&D systems)
T1 sequence (Q07011 24-186): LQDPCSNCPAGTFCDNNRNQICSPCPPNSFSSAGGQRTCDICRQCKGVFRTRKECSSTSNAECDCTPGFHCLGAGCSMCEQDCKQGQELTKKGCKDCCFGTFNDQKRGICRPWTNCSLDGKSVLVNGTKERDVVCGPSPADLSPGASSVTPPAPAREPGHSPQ

[2] = target: T2, human Nectin-4 extracellular domain (human, UniProt Q96NY8 32-349, biotinylated where captured on the streptavidin chip); assay: SPR, one example sensorgram (FIG. 21A), immobilized Nectin-4
T2 construct: extracellular domain; also called Nectin-4 (human); Biotinylated - Nectin-4 extracellular domain
T2 sequence (looked up): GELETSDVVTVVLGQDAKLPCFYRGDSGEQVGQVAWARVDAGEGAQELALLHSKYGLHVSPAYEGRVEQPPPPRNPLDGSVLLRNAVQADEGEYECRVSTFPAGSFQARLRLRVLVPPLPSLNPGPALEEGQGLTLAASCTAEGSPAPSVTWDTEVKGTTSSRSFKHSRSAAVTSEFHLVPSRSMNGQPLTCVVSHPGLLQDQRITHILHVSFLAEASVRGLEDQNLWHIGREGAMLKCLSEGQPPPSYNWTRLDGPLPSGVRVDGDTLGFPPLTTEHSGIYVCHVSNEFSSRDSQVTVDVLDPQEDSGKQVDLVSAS

[3] = target: CD137 on Jurkat reporter cells (Promega kit CS196005) (UniProt Q07011 24-255, limits assumed); assay: cell-based or functional assay
Chain of CD137 on Jurkat reporter cells (Promega kit CS196005) (Q07011 24-255 limits assumed): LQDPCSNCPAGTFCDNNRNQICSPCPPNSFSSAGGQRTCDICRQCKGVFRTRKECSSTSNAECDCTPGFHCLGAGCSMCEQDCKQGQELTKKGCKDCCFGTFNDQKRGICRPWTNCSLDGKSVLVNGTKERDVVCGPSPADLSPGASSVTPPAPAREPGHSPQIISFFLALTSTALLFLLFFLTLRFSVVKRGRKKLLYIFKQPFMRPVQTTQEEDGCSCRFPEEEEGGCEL

[4] = target: T1, human CD137 extracellular domain; assay: SPR, direct binding of BCY11863 to immobilized human CD137, 1:1 fit; the text calls the off rate very slow (avidity from two CD137 bicycles)
[5] = target: T3, cyno (NHP) Nectin-4 extracellular domain (cyno (NHP), UniProt A0A2K5WES1 32-349, biotinylated where captured on the streptavidin chip); assay: SPR sandwich assay, BCY11863 captured on biotinylated human CD137, soluble Nectin-4 ECD passed over, n = 3
T3 construct: extracellular domain
T3 sequence: T2 sequence (looked up) with V39A, I230V

[6] = target: T4, mouse Nectin-4 extracellular domain (mouse, UniProt Q8R007 31-347, biotinylated where captured on the streptavidin chip); assay: as above
T4 construct: extracellular domain
T4 sequence (looked up): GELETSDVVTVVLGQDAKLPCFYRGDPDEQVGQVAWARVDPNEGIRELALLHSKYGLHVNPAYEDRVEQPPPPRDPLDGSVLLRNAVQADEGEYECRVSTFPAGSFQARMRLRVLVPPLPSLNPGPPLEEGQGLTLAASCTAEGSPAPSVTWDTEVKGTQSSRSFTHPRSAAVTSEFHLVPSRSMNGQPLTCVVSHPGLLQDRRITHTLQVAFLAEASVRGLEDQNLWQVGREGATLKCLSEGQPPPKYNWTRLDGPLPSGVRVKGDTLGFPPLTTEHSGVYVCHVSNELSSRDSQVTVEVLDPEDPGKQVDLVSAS

[7] = target: T5, rat Nectin-4 extracellular domain (rat, UniProt D3ZET1 31-348, biotinylated where captured on the streptavidin chip); assay: as above
T5 construct: extracellular domain
T5 sequence: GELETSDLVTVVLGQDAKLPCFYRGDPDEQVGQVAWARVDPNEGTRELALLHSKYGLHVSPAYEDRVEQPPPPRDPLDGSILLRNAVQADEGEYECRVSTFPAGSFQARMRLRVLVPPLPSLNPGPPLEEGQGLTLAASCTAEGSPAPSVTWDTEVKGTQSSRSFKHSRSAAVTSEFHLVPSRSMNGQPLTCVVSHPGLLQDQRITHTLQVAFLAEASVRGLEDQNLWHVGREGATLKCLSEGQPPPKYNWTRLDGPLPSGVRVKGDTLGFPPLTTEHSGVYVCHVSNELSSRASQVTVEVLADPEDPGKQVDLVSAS

[8] = target: T1, human CD137 extracellular domain; assay: SPR, direct binding of BCY11863 to immobilized human CD137, 1:1 fit; avidity from two CD137 bicycles
[9] = target: T1, human CD137 extracellular domain; assay: SPR, direct binding of BCY11863 to immobilized human CD137, 1:1 fit; the text says the reported KD may be an overestimation (avidity)
[10] = target: T6, Nectin-like-1 (3678-S4-050, R&D Systems) (UniProt Q8N126 25-330, biotinylated); assay: SPR, biotinylated target on streptavidin surface
T6 sequence (looked up): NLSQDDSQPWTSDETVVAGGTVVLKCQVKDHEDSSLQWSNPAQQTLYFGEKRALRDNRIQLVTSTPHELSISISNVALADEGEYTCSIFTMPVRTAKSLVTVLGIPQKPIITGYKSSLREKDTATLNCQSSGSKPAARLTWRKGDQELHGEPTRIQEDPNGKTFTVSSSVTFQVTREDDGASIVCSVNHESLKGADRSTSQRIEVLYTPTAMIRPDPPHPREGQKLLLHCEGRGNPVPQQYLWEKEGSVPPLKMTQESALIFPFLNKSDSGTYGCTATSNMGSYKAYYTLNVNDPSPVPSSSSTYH

[11] = target: T2, human Nectin-4 extracellular domain; assay: SPR direct binding, biotinylated Nectin-4 ECD on streptavidin chip, 37° C., n = 9

B1: heterotandem bicyclic peptide complex BCY11863 (peptide)
peptide 1: CP[1Nal][dD]CM[hArg]DWSTP[Hyp]WC
peptide 2: Ac-C[tBuAla]PE[dLys(PYA)]PYCFADPY[Nle]CA
modifications: linker I:1-I:5-I:15, II:1-II:8-II:15 via TATA; not fully specified (bridges); also: 1:2 complex: BCY8116 + 2x BCY8928
notes: also called Nectin-4/CD137 heterotandem
For B1, the Kd [1] was 6.3 nM, the Kd [2] was 4.1 nM and the “Fold improvement in EC50 over BCY10000 on same plate, NCI-H292” value [3] was 4.56 fold. For the same binder, the “Fold improvement in Emax over BCY10000 on same plate, NCI-H292” value [3] was 2.16 fold, the koff [4] was 0.00035 s⁻¹ and the Kd [5] was 28 nM. The Kd [6] was 6.7 nM, the Kd [7] was 25 nM and the kon [8] was 952000 M⁻¹ s⁻¹. For the same binder, the Kd [9] was 0.368 nM, the binding result [10] was “no binding (tested: 5000 nM)” and the Kd [11] was 5.2 nM.

From patent US20230129258A1 (Bicycle, published 2023)
